Test results taken from patent US20180223285A1.

Target: human C5a receptor (human) (UniProt P21730)
Assay: cell-based or functional assay

Sequence of human C5a receptor (human) (P21730 whole entry): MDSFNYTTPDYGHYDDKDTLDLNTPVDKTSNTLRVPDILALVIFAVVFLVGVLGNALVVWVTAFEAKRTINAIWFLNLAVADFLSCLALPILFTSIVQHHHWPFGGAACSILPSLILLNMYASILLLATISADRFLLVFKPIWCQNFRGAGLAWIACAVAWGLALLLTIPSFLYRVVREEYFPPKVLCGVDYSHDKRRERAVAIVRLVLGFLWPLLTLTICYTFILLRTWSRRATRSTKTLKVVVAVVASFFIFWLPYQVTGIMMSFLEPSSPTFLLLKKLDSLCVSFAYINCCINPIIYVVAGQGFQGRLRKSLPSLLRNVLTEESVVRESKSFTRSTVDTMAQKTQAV

Row | Substance | half effective concentration (EC50) of chemotaxis of BA/F3/huC5aR cells
1 | mouse C5a (from UniProt P06684 679-755) (ligand) | 0.3 nM
2 | recombinant human C5a (from UniProt P01031 678-751) (ligand) | 0.1 nM
